Read-outs that look alike come from different tables or passages of the source.
Tests used:
[1] = target: T1, recombinant human IgE, SE44 (human, UniProt P01854-1 1-428); experiment: ELISA titration of Fab on plate-coated SE44 (Example 6)
T1 construct: The IgE used as antigen in the ELISA screens (coated, or biotinylated); also called monoclonal human IgE (SE44); biotinylated SE44
Procedure: (§1) The constructed library was subjected to an ELISA screen for improved binding to the recombinant human IgE, SE44. Clones with binding affinity greater than murine TES-C21 Fab were isolated and sequenced. Clone ID #4, 49, 72, 76, and 136 were further characterized.
(§2) Plates were coated with 0.25 ug/mL (for purified Fab 0.1 ug/ml) SE44 in carbonate coating buffer overnight at 4° C. Coating solution was removed and the plates were blocked with 200 uL/well 3% BSA/PBS for 1 hour at 37° C.

[2] = target: T1, recombinant human IgE, SE44; experiment: as above; remark: listed apart in the source
Procedure: as §1, §2

human IgE [3] = target: T2, human IgE (human, UniProt P01854-1 1-428); experiment: method not stated at the table (Example 10 lists Biacore analysis); target IgE taken from context
T2 construct: it may be SE44; also called intact human IgE; biotinylated IgE
T2 sequence (P01854 other isoform, or with tags, fused parts or gaps): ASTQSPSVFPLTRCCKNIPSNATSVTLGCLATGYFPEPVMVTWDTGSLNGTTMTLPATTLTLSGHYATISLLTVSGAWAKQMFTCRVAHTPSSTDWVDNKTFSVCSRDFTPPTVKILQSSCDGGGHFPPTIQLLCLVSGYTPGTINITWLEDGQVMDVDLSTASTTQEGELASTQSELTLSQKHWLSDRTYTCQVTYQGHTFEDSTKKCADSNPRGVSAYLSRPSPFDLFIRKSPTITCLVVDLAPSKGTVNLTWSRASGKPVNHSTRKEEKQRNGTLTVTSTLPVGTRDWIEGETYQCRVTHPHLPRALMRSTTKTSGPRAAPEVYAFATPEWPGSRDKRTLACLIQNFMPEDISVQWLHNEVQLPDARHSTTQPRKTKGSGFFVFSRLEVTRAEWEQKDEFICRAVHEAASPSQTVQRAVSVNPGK

human IgE [4] = target: T2, human IgE; experiment: relative to parent TES-C21
human IgE [5] = target: T2, human IgE; experiment: soluble receptor assay: inhibition of the binding of biotinylated IgE to plate-coated FcεRI alpha chain (Example 8)
Procedure: A 96 well assay plate suitable for ELISA was coated with 0.05 mL 0.5 μg/mL FcεRI alpha-chain receptor coating buffer (50 mM carbonate/bicarbonate, pH 9.6) for 12 hours at 4-8° C. The wells were aspirated and 25 μL blocking buffer (PBS, 1% BSA, pH 7.2) was added and incubated for 1 hour at 37° C. In a separate assay plate the samples and reference TES-C21 MAbs were titered from 200 to 0.001 μg/mL by 1:4 dilutions with assay buffer (0.5% BSA and 0.05% Tween 20, PBS, pH 7.2) and an equal volume of 100 ng/mL biotinylated IgE was added and the plate incubated for 2-3 hours at 25° C. The FcεRI—coated wells were washed three times with PBS and 0.05% TWEEN 20 and 50 μL from the sample wells were transferred and incubated with agitation for 30 minutes at 25° C. Fifty/μL/well of 1 mg/mL Streptavidin-HRP, diluted 1:2000 in assay buffer, was incubated for 30 minutes with agitation and then the plate was washed as before. Fifty μL/well of TMB substrate was added and color was developed. The reaction was stopped by adding an equal volume of 0.2 M H₂SO₄ and the absorbance measured at 450 nm.

T1 sequence (P01854 other isoform, or with tags, fused parts or gaps): as above

Binder | EC50 (read off the curve) [1] [µg/mL] | EC50 (read off the curve) [2] [µg/mL] | Kd (human IgE [3]) [pM] | Fold Increase in Binding Affinity (human IgE [4]) [fold] | IC50 (read off the curve) (human IgE [5]) [µg/mL]
C21 (Fab, V domains shown, also called parent Fab of TES-C21; murine TES-C21 Fab) VH: QVQLQQSGAELMKPGASVKISCKTTGYTFSMYWLEWVKQRPGHGLEWVGEISPGTFTTNYNEKFKAKATFTADTSSNTAYLQLSGLTSEDSAVYFCARFSHFSGSNYDYFDYWGQGTSLTVSS VL: DILLTQSPAILSVSPGERVSFSCRASQSIGTNIHWYQQRTDGSPRLLIKYASESISGIPSRFSGSGSGTEFTLNINSVESEDIADYYCQQSDSWPTTFGGGTKLEIK | ~0.05 | ~0.05 | – | – | –
murine anti-IgE monoclonal antibody TES-C21 (antibody, V domains shown, Murine parent antibody; also called murine mAb TES-C21; parent TES-C21) VH: QVQLQQSGAELMKPGASVKISCKTTGYTFSMYWLEWVKQRPGHGLEWVGEISPGTFTTNYNEKFKAKATFTADTSSNTAYLQLSGLTSEDSAVYFCARFSHFSGSNYDYFDYWGQGTSLTVSS VL: DILLTQSPAILSVSPGERVSFSCRASQSIGTNIHWYQQRTDGSPRLLIKYASESISGIPSRFSGSGSGTEFTLNINSVESEDIADYYCQQSDSWPTTFGGGTKLEIK | – | – | 614 | – | –
humanized TES-C21 Fab clone 136 (Fab, V domains shown, Retains 5 murine heavy chain framework residues; light chain framework is 100% human; also called Clone ID #136; Humanized clone 136) VH: QVQLVQSGAEVMKPGSSVKVSCKASGYTFSMYWLEWVRQAPGHGLEWMGEISPGTFTTNYNEKFKARVTFTADTSTSTAYMELSSLRSEDTAVYYCARFSHFSGSNYDYFDYWGQGTLVTVSS VL: EIVMTQSPATLSVSPGERATLSCRASQSIGTNIHWYQQKPGQAPRLLIYYASESISGIPARFSGSGSGTEFTLTISSLQSEDFAVYYCQQSDSWPTTFGGGTKVEIK | ~0.04 | – | – | – | –
Anti-IgE CL-5A (antibody, V domains shown, ATCC PTA-5679; also called MAb 1(CL-5A); clone 5A) VH: QVQLVQSGAEVMKPGSSVKVSCKASGYTFSWYWLEWVRQAPGHGLEWMGEIEPGTETTNYNEKFKARVTFTADTSTSTAYMELSSLRSEDTAVYYCARFSHFSGSNYDYFDYWGQGTLVTVSS VL: EIVMTQSPATLSVSPGERATLSCRASQSIGTNIHWYQQKPGQAPRLLIYYASESISGIPARFSGSGSGTEFTLTISSLQSEDFAVYYCQQSWSWPTTFGGGTKVEIKT | – | – | 0.158 | 3890 | –
Anti-IgE CL-2C (antibody, V domains shown, ATCC PTA-5678; also called MAb 2 (CL-2C); clone 2C) VH: QVQLVQSGAEVMKPGSSVKVSCKASGYTFSWYWLEWVRQAPGHGLEWMGEIDPGTFTTNYNEKFKARVTFTADTSTSTAYMELSSLRSEDTAVYYCARFSHFSGSNYDYFDYWGQGTLVTVSS VL: EIVMTQSPATLSVSPGERATLSCRASQSIGTNIHWYQQKPGQAPRLLIYYASESISGIPARFSGSGSGTEFTLTISSLQSEDFAVYYCQQSWSWPTTFGGGTKVEIKT | – | – | 1.47 | 417 | ~0.3
Anti-IgE CL-5I (antibody, V domains shown, ATCC PTA-5680; also called MAb 3 (CL-5I)) VH: QVQLVQSGAEVMKPGSSVKVSCKASGYTFSMYWLEWVRQAPGHGLEWMGEIDPGTFETNYNEKFKARVTFTADTSTSTAYMELSSLRSEDTAVYYCARFSHFSGSNYDYFDYWGQGTLVTVSS VL: EIVMTQSPATLSVSPGERATLSCRASQSIGTNIHWYQQKPGQAPRLLIYYASESISGIPARFSGSGSGTEFTLTISSLQSEDFAVYYCQQSWSWPTTFGGGTKVEIKT | – | – | 3.2 | 191 | –

From patent publication US20050169909A1 (TANOX, published 2005)
